The labels stand for the following.
B1: czPD1-14v2-Fc xEML-DANA (Fc fusion)
chain: EVQLVESGGGEVKPGGSLRLSCVASGRTVSIYAMGWFRQAPGKEREFVAGIGWNGGTTYYADAVKGRFTISRDNAKNTVYLQMSSLRAEDTAVYYCAAQESAAGTLGDYWGQGTQVTVKPGGGGENGRVPRPPDCPKCPAPGGPSVFIFPPKPKDTLLIARTPEVTCVVVALDPEDPEVQISWFVDGKQMQTAKTQPREEQFAGTYRVVSVLPIGHQDWLKGKQFTCKVNNKALPSPIERTISKARGQAHQPSVYVLPPSREELSKNTVSLTCLIKDFFPPDIDVEWQSNGQQEPESKYRTTPPQLDEDGSYFLYSKLSVDKSRWQRGDTFICAVMHEALHNHYTQKSLSHSPGK
notes: Dimer formation is stated only in embodiment language
B2: PD1-14-Fc xEML-DANA (Fc fusion)
chain: QVQLQQSGGGLAQAGGSLRLSCAASGRTVSIYAMGWFRQAPGKEREFVAGIGWNGGTTYYADSVEGRFTISRDHAKNTAYLQMNSLKPEDTAVYYCAAQESAAGTLGDYWGRGTQVTVKPGGGGENGRVPRPPDCPKCPAPGGPSVFIFPPKPKDTLLIARTPEVTCVVVALDPEDPEVQISWFVDGKQMQTAKTQPREEQFAGTYRVVSVLPIGHQDWLKGKQFTCKVNNKALPSPIERTISKARGQAHQPSVYVLPPSREELSKNTVSLTCLIKDFFPPDIDVEWQSNGQQEPESKYRTTPPQLDEDGSYFLYSKLSVDKSRWQRGDTFICAVMHEALHNHYTQKSLSHSPGK
notes: as for B1
B3: czPD1-14v1-Fc xEML-DANA (Fc fusion)
chain: B1 chain with N54S
B4: czPD1-14v3-Fc xEML-DANA (Fc fusion)
chain: B1 chain with N74H
notes: as for B1
B5: PD1-8-Fc xEML-DANA (Fc fusion)
chain: QVQLQQSGGGLVQAGGSLRVSCAASGRTFSSYGMGWFRQAPGKEREFVAAISWSGGTQYYADSAKGRFTISRDNAKNTVYLQMNSLKPEDTAVYYCADYTDYVVYRPQEIGYWGQGTQVTVKPENGRVPRPPDCPKCPAPGGPSVFIFPPKPKDTLLIARTPEVTCVVVALDPEDPEVQISWFVDGKQMQTAKTQPREEQFAGTYRVVSVLPIGHQDWLKGKQFTCKVNNKALPSPIERTISKARGQAHQPSVYVLPPSREELSKNTVSLTCLIKDFFPPDIDVEWQSNGQQEPESKYRTTPPQLDEDGSYFLYSKLSVDKSRWQRGDTFICAVMHEALHNHYTQKSLSHSPGK
B6: PD1-5-Fc xEML-DANA (Fc fusion)
chain: QVTLRESGGGLVQPGGSLRLSCAASGLTFGLYAMTWFRQAPGKDREGISCISSSDGSTIYADSVKGRFTASRDNAKDTMYLQMNNLNPEDTAVYYCATDYETRCDYGLRLRDRTAYWGPGTQVTVKPENGRVPRPPDCPKCPAPGGPSVFIFPPKPKDTLLIARTPEVTCVVVALDPEDPEVQISWFVDGKQMQTAKTQPREEQFAGTYRVVSVLPIGHQDWLKGKQFTCKVNNKALPSPIERTISKARGQAHQPSVYVLPPSREELSKNTVSLTCLIKDFFPPDIDVEWQSNGQQEPESKYRTTPPQLDEDGSYFLYSKLSVDKSRWQRGDTFICAVMHEALHNHYTQKSLSHSPGK
B7: PD1-13-Fc xEML-DANA (Fc fusion)
chain: QVTLKESGGGLVQAGGSLRLSCAASGRTEIIYAMGWFRQAPGKEREFVAGIGWSGGTTYYADSVEGRFTISRDSAKNTVYLQMRSLKPEDTAVYYCAAQDSVAGTLGDYWGQGTQVTVKPGGGGENGRVPRPPDCPKCPAPGGPSVFIFPPKPKDTLLIARTPEVTCVVVALDPEDPEVQISWFVDGKQMQTAKTQPREEQFAGTYRVVSVLPIGHQDWLKGKQFTCKVNNKALPSPIERTISKARGQAHQPSVYVLPPSREELSKNTVSLTCLIKDFFPPDIDVEWQSNGQQEPESKYRTTPPQLDEDGSYFLYSKLSVDKSRWQRGDTFICAVMHEALHNHYTQKSLSHSPGK
notes: as for B1
B8: cCD19-4A8-Fc (Fc fusion, part only; not given: CD19 binding part, linker, not shown: another chain or arm of the molecule; small tags and cut ends)
Fc: ENGRVPRPPDCPPCPAPEMLGGPSVFIFPPKPKDTLLIARTPEVTCVVVDLDPEDPEVQISWFVDGKQMQTAKTQPREEQFNGTYRVVSVLPIGHQDWLKGKQFTCKVNNKALPSPIERTISKARGQAHQPSVYVLPPSREELSKNTVSLTCLIKDFFPPDIDVEWQSNGQQEPESKYRTTPPQLDEDGSYFLYSKLSVDKSRWQRGDTFICAVMHEALHNHYTQKSLSHSPGK

Changes are numbered by the printed parent chain. Some results are limits rather than exact numbers.

The target of the first assay is T1, canine PD-1 (canine).
T1 chain: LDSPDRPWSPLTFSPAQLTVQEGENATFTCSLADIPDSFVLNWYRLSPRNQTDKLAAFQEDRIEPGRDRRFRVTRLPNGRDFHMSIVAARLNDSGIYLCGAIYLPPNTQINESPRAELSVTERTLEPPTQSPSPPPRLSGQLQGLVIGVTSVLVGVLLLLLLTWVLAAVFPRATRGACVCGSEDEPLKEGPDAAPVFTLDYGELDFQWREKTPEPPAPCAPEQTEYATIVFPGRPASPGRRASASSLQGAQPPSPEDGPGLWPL
The assay can be described thus: cell-based or functional assay.
Regarding B1, the “EC50 (nM), CD4 T cells (canine PBMCs, background corrected mean fluorescence intensity)” value was determined as 9.15 nM and the “EC50 (nM), CD8 T cells (canine PBMCs, background corrected mean fluorescence intensity)” value was 27.2 nM.

Take B2: the “EC50 (nM), CD4 T cells (canine PBMCs, background corrected mean fluorescence intensity)” value turned out to be 1.7 nM and the “EC50 (nM), CD8 T cells (canine PBMCs, background corrected mean fluorescence intensity)” value came out at 0.764 nM.

A further assay deals with T1, canine PD-1. The assay can be described thus: flow cytometry on 293FS cells transiently expressing full length canine PD-1. As to the method:
(§1) Binding of the sdAbs to canine PD-1 was determined as follows. Transiently transfected 293FS cells that express full length canine PD-1 and untransfected 293FS cells were plated at 50,000 cells/well in separate wells. Antibodies were titrated serially diluted 1:3 starting at 400 nM, and detected with anti-canine Fc 647 secondary antibody. Flow cytometric analysis was performed on an Intellicyte iQue analyzer and fluorescence was plotted as median fluorescence intensity.
Take B1: binding was characterised by a dissociation constant (Kd) of 6.65 nM.

Take B3: the affinity, expressed as Kd, was 4.15 nM.

The molecule B4 gave a dissociation constant Kd of 3.24 nM.

Regarding B5, the Kd is less than 10 nM.

Consider B2, for which the Kd turned out to be 8.82 nM.

For the molecule B6, the Kd is less than 10 nM.

Turning to B7, the Kd is less than 10 nM.

The target in a further assay is canine CD64 (canine) (UniProt Q7YQJ5). The assay can be described thus: flow cytometry, sdAb titrated on 293FS cells transfected with full length canine CD64, anti-canine Fc 647 secondary.
Sequence of canine CD64 (canine) (Q7YQJ5 entry or part of it): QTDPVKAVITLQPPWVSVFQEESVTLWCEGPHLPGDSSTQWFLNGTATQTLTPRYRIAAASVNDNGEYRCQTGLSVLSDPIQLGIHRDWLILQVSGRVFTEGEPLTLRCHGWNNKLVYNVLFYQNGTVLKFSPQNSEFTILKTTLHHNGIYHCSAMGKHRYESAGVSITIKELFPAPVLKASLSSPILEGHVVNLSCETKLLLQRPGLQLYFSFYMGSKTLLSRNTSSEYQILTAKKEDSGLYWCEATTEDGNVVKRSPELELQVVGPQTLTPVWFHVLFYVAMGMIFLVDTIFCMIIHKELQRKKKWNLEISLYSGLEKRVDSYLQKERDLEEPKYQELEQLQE
B8 returned an EC50 (read off the curve) of 9 nM.

The next assay addresses T1, canine PD-1. The assay can be described thus: flow cytometry, sdAb titrated on 293FS cells expressing canine PD-1 (title: canPD1 binding), anti-canine Fc 647 secondary. On the procedure:
as §1
Take B5: the “EC50 (read off the curve)” value was roughly 2 nM.

As for B2, the “EC50 (read off the curve)” value was roughly 2 nM.

Take B6: the “EC50 (read off the curve)” value is roughly 2 nM.

Consider B7, for which the concentration for a half-maximal effect (EC50 (read off the curve)) was roughly 2 nM.

The next assay deals with T1, canine PD-1. Put plainly: flow cytometry blocking assay: sdAb titrated against 4 nM canine PD-L1-hFc (the blocked ligand) on 293FS cells expressing canine PD-1. On the procedure: (§2) Binding of canine PD-1 to PD-L1 in the presence of the sdAbs described in Example 1 was determined as follows. Each sdAb was incubated for 1 hour at room temperature in a PBS buffer, with 3 or 4 nM canine PD-L1-hFc fusion (Sino Biological) and untransfected 293FS cells or transfected 293FS cells expressing full length canine PD-1 (SEQ ID NO: 1). A fluorescent anti-Fc specific secondary antibody was used to detect […] by flow cytometry using an Intellicyte iQue analyzer. Mean fluorescence intensity was plotted for each concentration of sdAb tested.
For B1, the “IC50 (read off the curve)” value was roughly 6 nM.

With B3, the “IC50 (read off the curve)” value was roughly 6 nM.

For the molecule B4, the “IC50 (read off the curve)” value was roughly 6 nM.

Take B2: the “IC50 (read off the curve)” value is roughly 6 nM.

For the next assay, the target named is T1, canine PD-1. The assay can be described thus: flow cytometry blocking assay: sdAb titrated against 3 nM canine PD-L1-hFc (the blocked ligand) on 293FS cells expressing canine PD-1. On the procedure:
as §2
Regarding B2, the “IC50 (read off the curve)” value was roughly 2 nM.

As to B6, the “IC50 (read off the curve)” value was roughly 2 nM.

On to B7, for which the “IC50 (read off the curve)” value is roughly 2 nM.

For the origin of these results see US20230331846A1 (INHIBRX, published 2023).
